In the supplement of paper PMC9233669:
This sample holds only a part of the variants without activity.

What was measured:
biotinyl-Met-oxazolone = experiment: self-aminoacylation, catalytic enhancement (BMO) (fold over background); higher = more active; k-Seq, kA / k0A0; sequences stand for … in GGGAAUGGAUCCACAUCUACGAAUUC…UUCACUGCAGACUUGACGAAGCUG
Outline: (§1)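 Catalytic enhancement equals the median kA over the uncatalyzed rate, the latter read from the low-activity peak of a bimodal Gaussian fit. Values of kA came from fitting each sequence's fraction reacted to a pseudo-first-order model, with 1000 bootstraps. Reacted RNA was captured with streptavidin and quantified by triplicate qPCR and Illumina sequencing after 90 minutes at room temperature with 2–1250 μM biotinyl-aminoacyl-oxazolone and 0.43 μM mutagenized RNA pools bearing a 21-nt variable region.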

biotinyl-Trp-oxazolone = experiment: self-aminoacylation, catalytic enhancement (BWO) (fold over background); higher = more active; k-Seq, kA / k0A0; sequences stand for … in GGGAAUGGAUCCACAUCUACGAAUUC…UUCACUGCAGACUUGACGAAGCUG
Outline: as §1

biotinyl-Phe-oxazolone = experiment: self-aminoacylation, catalytic enhancement (BFO) (fold over background); higher = more active; k-Seq, kA / k0A0; sequences stand for … in GGGAAUGGAUCCACAUCUACGAAUUC…UUCACUGCAGACUUGACGAAGCUG
Outline: as §1

biotinyl-Leu-oxazolone = experiment: self-aminoacylation, catalytic enhancement (BLO) (fold over background); higher = more active; k-Seq, kA / k0A0; sequences stand for … in GGGAAUGGAUCCACAUCUACGAAUUC…UUCACUGCAGACUUGACGAAGCUG
Outline: as §1

biotinyl-Val-oxazolone = experiment: self-aminoacylation, catalytic enhancement (BVO) (fold over background); higher = more active; k-Seq, kA / k0A0; sequences stand for … in GGGAAUGGAUCCACAUCUACGAAUUC…UUCACUGCAGACUUGACGAAGCUG
Outline: as §1

biotinyl-Ile-oxazolone = experiment: self-aminoacylation, catalytic enhancement (BIO) (fold over background); higher = more active; k-Seq, kA / k0A0; sequences stand for … in GGGAAUGGAUCCACAUCUACGAAUUC…UUCACUGCAGACUUGACGAAGCUG
Outline: as §1

Sequence	self-aminoacylation (biotinyl-Met-oxazolone)	self-aminoacylation (biotinyl-Trp-oxazolone)	self-aminoacylation (biotinyl-Phe-oxazolone)	self-aminoacylation (biotinyl-Leu-oxazolone)	self-aminoacylation (biotinyl-Val-oxazolone)	self-aminoacylation (biotinyl-Ile-oxazolone)
ACUACCCUGGUCACCGAGUGA [Fam2.1 aminoacylation ribozyme variant]	9.06	9.34	46.5	11.2	4.77	4.67
ACUACCCUGGUCAUCCAGUGA [Fam2.1 aminoacylation ribozyme variant]	5.05	5.86	21.2	5.01	3.27	3.37
ACUACCCUGGUCAUCGACUGA [Fam2.1 aminoacylation ribozyme variant]	1.09	0.51	3.44	0.769	0.854	0.918
ACUACCCUGGUCAUCGAGUUA [Fam2.1 aminoacylation ribozyme variant]	5.07	3.55	8.46	5.11	2.38	2.05
ACUACCCUGGUCUUCGAGUGA [Fam2.1 aminoacylation ribozyme variant]	4.26	5.15	11.5	4.54	2.72	2.45
ACUAGCCUGGUCAUCGAGUGA [Fam2.1 aminoacylation ribozyme variant]	4.28	5.21	30.2	4.72	3.68	3.66
ACUCACAUAGGUCAUCGGGUG [Fam2.2 aminoacylation ribozyme variant]	9.37	10.2	69.5	10.6	6.65	6.79
ACUCACCAAGGUCAUCGGGUG [Fam2.2 aminoacylation ribozyme variant]	5.24	6.28	46.4	7.13	4.52	4.43
ACUCACCUAGGCCAUCGGGUG [Fam2.2 aminoacylation ribozyme variant]	4.87	5.91	34.2	5.87	6.46	4.74
ACUCACCUAGGUCAUGGGGUG [Fam2.2 aminoacylation ribozyme variant]	3.95	4.43	24.8	4.65	4	3.61
ACUCACCUCGGUCAUCGGGUG [Fam2.2 aminoacylation ribozyme variant]	4.36	6.06	34.4	5.87	4.77	4.08
ACUCACCUGGGUCAUCGGGUG [Fam2.2 aminoacylation ribozyme variant]	4.83	8.05	38.9	5.61	4.66	4.86
ACUGCCCUGGUCAUCGAGUGA [Fam2.1 aminoacylation ribozyme variant]	36	37.1	269	34.1	14.9	13.4
AGACACUUCAAGCAAUCGGUC [Fam1B.1 aminoacylation ribozyme variant]	2.62	16	19	3.25	2.64	2.8
AGACUUCAAACAAUCGGUCUG [Fam1A.1 aminoacylation ribozyme variant]	2.4	48.1	125	3.5	1.93	2.06
AGCUUUGCUAAUAGUCGCAAG [Fam3.1 aminoacylation ribozyme variant]	3.31	3.68	9.09	3.02	2.4	2.95
AGGCACCUAGGUCAUCGGGUG [Fam2.2 aminoacylation ribozyme variant]	3.14	4.1	17	3.18	3.73	2.94
AGGUUAGCUAAUAGUCGCAAG [Fam3.1 aminoacylation ribozyme variant]	1.46	3.06	2.66	2.16	1.77	1.97
AGGUUUACUAAUAGUCGCAAG [Fam3.1 aminoacylation ribozyme variant]	1.84	1.81	4.12	1.49	1.47	1.58
AGGUUUCCUAAUAGUCGCAAG [Fam3.1 aminoacylation ribozyme variant]	1.6	1.54	2.49	1.61	1.44	1.65
AGGUUUGCUAAGAGUCGCAAG [Fam3.1 aminoacylation ribozyme variant]	1.15	1.54	3.17	1.02	1.02	1.12
AGGUUUGCUAAUAGUCGCAAA [Fam3.1 aminoacylation ribozyme variant]	2.11	1.92	3.21	2.42	2.2	2.52
AGGUUUGCUAAUAGUCGCAAC [Fam3.1 aminoacylation ribozyme variant]	1.15	1.43	1.52	1.13	1.05	1.26
AGGUUUGCUACUAGUCGCAAG [Fam3.1 aminoacylation ribozyme variant]	1.55	1.77	2.49	1.84	1.69	1.35
AGGUUUGCUAGUAGUCGCAAG [Fam3.1 aminoacylation ribozyme variant]	0.787	0.88	1.49	0.945	0.894	0.918
AGUACCCUCGUCAUCGAGUGA [Fam2.1 aminoacylation ribozyme variant]	3.19	3.06	18.8	3.97	2.08	2.37

Sequence	self-aminoacylation (biotinyl-Met-oxazolone)	self-aminoacylation (biotinyl-Trp-oxazolone)	self-aminoacylation (biotinyl-Phe-oxazolone)	self-aminoacylation (biotinyl-Leu-oxazolone)	self-aminoacylation (biotinyl-Val-oxazolone)	self-aminoacylation (biotinyl-Ile-oxazolone)
AGUACCCUGGUCAGCGAGUGA [Fam2.1 aminoacylation ribozyme variant]	4.42	7.2	36.4	6.63	3.45	3.51
AGUACCCUGGUCAUCGACUGA [Fam2.1 aminoacylation ribozyme variant]	1.1	1.01	0.572	0.974	1.07	1.34
AGUACCCUGGUCAUCGAGGGA [Fam2.1 aminoacylation ribozyme variant]	1.22	2.91	1.82	2.21	1.47	1.43
AGUACCCUGGUCAUCGCGUGA [Fam2.1 aminoacylation ribozyme variant]	19.4	20.5	128	20.3	12.2	8.36
AGUACCCUGGUCAUGGAGUGA [Fam2.1 aminoacylation ribozyme variant]	2.7	2.82	11	3.1	2.27	2.31
AGUACCCUGGUCAUUGAGUGA [Fam2.1 aminoacylation ribozyme variant]	6.37	9.07	37.2	7.4	3.39	3.86
AGUACCCUGGUGAUCGAGUGA [Fam2.1 aminoacylation ribozyme variant]	5.62	5.32	30.2	5.58	2.92	2.76
AGUACCCUGUUCAUCGAGUGA [Fam2.1 aminoacylation ribozyme variant]	4.14	4.52	17.4	4.46	2.45	2.36
AGUACGCUGGUCAUCGAGUGA [Fam2.1 aminoacylation ribozyme variant]	2.82	5.19	14.4	4.19	3.21	3.17
AGUACUCUGGUCAUCGAGUGA [Fam2.1 aminoacylation ribozyme variant]	4.15	3.97	11.4	3.94	3.01	3.14
AGUAUCCUGGUCAUCGAGUGA [Fam2.1 aminoacylation ribozyme variant]	6.72	8.53	20.7	7.39	4	4.12
AGUCACAUAGGUCAUCGGGUG [Fam2.2 aminoacylation ribozyme variant]	8.54	9.51	63.6	10.2	6.38	7.04
AGUCACCAAGGUCAUCGGGUG [Fam2.2 aminoacylation ribozyme variant]	6.59	7.87	51.2	7.67	4.7	4.38
AGUCACCUAGGUCAUAGGGUG [Fam2.2 aminoacylation ribozyme variant]	3.12	2.56	9.22	2.56	2.17	2.18
AGUCACCUAGGUCAUCGAGUG [Fam2.2 aminoacylation ribozyme variant]	4.24	4.19	6.67	5.93	3.16	3.67
AGUCACCUAGGUCAUCGGGUC [Fam2.2 aminoacylation ribozyme variant]	2.13	1.69	4.41	1.82	1.7	1.46
AGUCACCUAGGUCAUCGGGUG [Fam2.2 aminoacylation ribozyme variant]	6.24	7.24	38.1	6.74	4.99	4.81
AGUCACCUAGGUCAUGGGGUG [Fam2.2 aminoacylation ribozyme variant]	5.58	5.76	29.2	5.97	4.11	3.57
AGUCACCUAGGUCAUUGGGUG [Fam2.2 aminoacylation ribozyme variant]	4.22	3.42	25.8	4.04	3.26	3.03
AGUCACCUAGGUCCUCGGGUG [Fam2.2 aminoacylation ribozyme variant]	6.34	9.19	37.5	6.54	4.64	5.66
AGUCACCUAGUUCAUCGGGUG [Fam2.2 aminoacylation ribozyme variant]	4.14	5.16	24	4.05	3.29	3.71
AGUCACCUCGGUCAUCGGGUG [Fam2.2 aminoacylation ribozyme variant]	6.27	7.18	44.4	6.23	4.18	4.47
AGUCAGCUAGGUCAUCGGGUG [Fam2.2 aminoacylation ribozyme variant]	5.84	9.92	58.2	6.1	5.51	5.42
AGUCAUCUAGGUCAUCGGGUG [Fam2.2 aminoacylation ribozyme variant]	7.32	9.27	53.9	7.92	5.47	5.24
AGUCCCCUGGUCAUCGAGUGA [Fam2.1 aminoacylation ribozyme variant]	6.67	7.41	42.6	6.55	4.13	3.3
